Measurements: PMC11215305

Biological target: RadD of F. nucleatum subsp. nucleatum ATCC 23726 (Fusobacterium nucleatum subsp. nucleatum ATCC 23726 (endogenous))
Experiment: flow cytometry on cells

human Siglec-7-Ig (from UniProt Q9Y286 19-353) (Fc fusion)
percent reduction of binding with 5 mM arginine: 31%
